{"source": "paper PMC4521846", "key": {"[1]": {"target": "Plasminogen (Homo sapiens) (UniProt P00747)", "conditions": "cited from earlier work"}, "[2]": {"target": "Elongation factor Tuf of Legionella pneumophila, recombinant, hexahistidine-tagged (Legionella pneumophila)", "test": "ELISA"}, "[3]": {"target": "Translation elongation factor Tuf of Acinetobacter baumannii type strain ATCC 19606, recombinant, N-terminally hexahistidine-tagged (Acinetobacter baumannii ATCC 19606) (UniProt B7H1K5)", "test": "ELISA; immobilised TufAb, plasminogen (10 ug/ml) with increasing concentrations of NaBr (up to 1 M)"}, "[4]": {"target": "Translation elongation factor Tuf of Acinetobacter baumannii type strain ATCC 19606, recombinant, N-terminally hexahistidine-tagged (Acinetobacter baumannii ATCC 19606) (UniProt B7H1K5)", "test": "ELISA; immobilised TufAb, plasminogen (10 ug/ml) with increasing concentrations of the lysine analog tranexamic acid (up to 50 mM)"}, "[5]": {"target": "Translation elongation factor Tuf of Acinetobacter baumannii type strain ATCC 19606, recombinant, N-terminally hexahistidine-tagged (Acinetobacter baumannii ATCC 19606) (UniProt B7H1K5)", "test": "ELISA; immobilised Tuf (5 ug/ml) incubated with increasing amounts of plasminogen; apparent dissociation constants by non-linear regression"}, "[6]": {"target": "Plasminogen (Homo sapiens) (UniProt P00747)", "conditions": "cited from earlier work", "remark": "listed apart in the source"}}, "note": "Read-outs that look alike come from different tables or passages of the source.", "data": [{"substance": "Enolase (from UniProt B8DTI9)", "values": [{"measurement": "Kd", "setting": "[1]", "result": 42, "unit": "nM"}]}, {"substance": "Human glu-plasminogen (natural protein)", "values": [{"measurement": "Kd", "setting": "[2]", "result": 69, "unit": "nM"}, {"measurement": "percent of binding left with 1 M NaBr, against reactions without NaBr", "setting": "[3]", "result": 55, "unit": "%"}, {"measurement": "percent decrease of binding with 50 mM tranexamic acid, against reactions without it", "setting": "[4]", "result": 50, "unit": "%"}, {"measurement": "Kd", "setting": "[5]", "result": 57, "unit": "nM"}]}, {"substance": "DnaK (from UniProt B8DT62)", "values": [{"measurement": "Kd", "setting": "[6]", "result": 11, "unit": "nM"}]}]}
